Measured values reported in patent US20160031942A1 (LONDON HEALTH SCIENCES CENTRE RESEARCH, published 2016).
Ends that are not written are not given here. * marks the point of attachment. FITC = O=C1OC2(c3ccc(O)cc3Oc3cc(O)ccc32)c2ccc(NC(=S)*)cc21; Ahx = NCCCCCC(=O)O

B1: peptide 14a (SEQ ID NO: 14), unmodified tubulin-derived peptide, sequence directly flanking beta-IIIa CTT (peptide)
peptide: FTEAESNMNDLV-NH2
notes: Synthetic 12-mer made on Rink amide MBHA resin

Key:
[1] = target: T1, Recombinant protein RHAMM-CT (truncated RHAMM, carboxy terminus containing the HA binding domain, amino acids … (Mus musculus (Mouse), UniProt Q00547 706-766)); assay: solid phase peptide binding assay (ELISA), immobilised RHAMM
T1 construct: Expressed in E. coli BL21 from pPAL7-RHAMM as eXact-tagged protein and purified on Profinity eXact resin (fluoride elution); M.W. 7.1 kDa, pI 10.1; also called recombinant RHAMM
T1 sequence: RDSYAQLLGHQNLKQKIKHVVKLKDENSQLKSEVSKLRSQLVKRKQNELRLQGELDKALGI

[2] = target: T2, Recombinant protein RHAMM-CT (truncated RHAMM, carboxy terminus containing the HA binding domain, amino acids … (UniProt Q00547 706-766)); assay: SPR
T2 chain: T1 sequence

[3] = target: T1, Recombinant protein RHAMM-CT (truncated …); assay: SPR screening (ProteON XPR36), RHAMM immobilised, peptide at 10 µM
Protocol: ProteON XPR36 system was used for the selection and ranking of different tubulin derived peptides against RHAMM. For immobilization of RHAMM, the ProteON GLC sensor chip surfaces were activated by amine coupling using 100 mM EDAC and 24 mM sulfo-NHS. RHAMM (30 μg/mL in sodium bicarbonate buffer, pH 9.7) was injected at a flow a rate of 30 μl/min. A buffer sample was injected on a different sensor plate for use as a reference. Ethanolamine HCl (1M, pH 8.5) was then injected to deactivate any remaining surface groups. Peptides (10 μM in PBS-T, 2% DMSO) were injected to a RHAMM functionalized surface at 50 μL/min for 3 minutes followed by a 10 minute dissociation (i.e. injection of PBS-T buffer) period. The surfaces were regenerated using two injections of 30 μL of 1M NaCl prior to the injection of the next peptide. In all experiments, reference subtraction was performed using data obtained from reference plate (No RHAMM) and RHAMM functionalized plate.
After immobilization of RHAMM on the SPR sensor chip, injection of a series of tubulin derived peptides was carried out. Association of the peptides with RHAMM proceeded for 3 minutes and the dissociation in analyte free buffer was carried out for 10 minutes. […]

Binder	binding result [1]	Kd [2]	binding result [3]
{FITC-Ahx}-EAFEDEEEEIDG-NH2 [peptide 12c (SEQ ID NO: 33), fluorescein-conjugated SEQ ID NO: 12]	binds		
B1		30 nM	binds
